{
  "source": "patent US8344120B2",
  "about": "“Nucleic acid molecules encoding rage fusion proteins” (TransTech Pharma, Inc., priority 2006, dated 2013)",
  "molecules": {"B1": {"name": "TTP-4000: four domain RAGE fusion protein: human RAGE N-terminal sequence (to position 251) linked to human IgG Fc (γ1) without hinge; SEQ ID NO: 34/56 (protein)", "chain": "QNITARIGEPLVLKCKGAPKKPPQRLEWKLNTGRTEAWKVLSPQGGGPWDSVARVLPNGSLFLPAVGIQDEGIFRCQAMNRNGKETKSNYRVRVYQIPGKPEIVDSASELTAGVPNKVGTCVSEGSYPAGTLSWHLDGKPLVPNEKGVSVKEQTRRHPETGLFTLQSELMVTPARGGDPRPTFSCSFSPGLPRHRALRTAPIQPRVWEPVPLEEVQLVVEPEGGAVAPPSVFLFPPKPKDTLMISRTPEVTCVVVDVSHEDPEVKFNWYVDGVEVHNAKTKPREEQYNSTYRVVSVLTVLHQDWLNGKEYKCKVSNKALPAPIEKTISKAKGQPREPQVYTLPPSRDELTKNQVSLTCLVKGFYPSDIAVEWESNGQPENNYKTTPPVLDSDGSFFLYSKLTVDKSRWQQGNVFSCSVMHEALHNHYTQKSLSLSPGK"}},
  "key": {"[1]": {"system": "recurrent diabetes in syngeneic NOD transplant model", "test": "Syngeneic islet transplantation in NOD mice", "type": "in vivo", "description": "Spontaneous autoimmune non-obese diabetic mice (NOD/LtJ) (12-25 weeks old) served as recipients for islet cells, while young pre-diabetic NOD/LtJ mice (6-7 weeks old) served as donors in syngeneic islet transplantation. Islets for transplantation were isolated as described above in Section A (Allogeneic Islet Transplantation). Diabetic NOD/LtJ mice received islet grafts within 2 days of the diagnosis of diabetes. 500-600 freshly isolated islets (approximately 550 islet equivalents) from donor mice were picked up with an infusion set and transplanted into the subcapular space of the right kidney. Test compounds were administered as soon as the islets were transplanted and continued for approximately 8 weeks. […] Islet graft function was monitored by serial blood glucose measurements daily for the first 2 weeks after islet transplantation, followed by every other day thereafter. Reversal of diabetes was defined as blood glucose less than 200 mg/dl on two consecutive measurements. Percentage graft loss was determined when blood glucose exceeded 250 mg/dl on two consecutive measurements."}, "[2]": {"test": "Pharmacokinetic profile of TTP-4000 after IV injection", "type": "in vivo, monkeys", "conditions": "single IV bolus 5 mg/kg; once TTP-4000 has saturated its ligands; plasma ELISA", "procedure": "Following collection, the tubes were placed on wet ice (maximum 30 minutes) until centrifugation under refrigeration (at 2 to 8° C.) at 1500×g for 15 minutes. Each harvested plasma sample was then stored frozen (−70° C.±10° C.) until assayed for RAGE polypeptide using an ELISA at various time-points following the injection, as described in Example 6.\nIn FIG. 12 each curve represents a different animal under the same experimental conditions.\nInitially, 50 uL of the RAGE specific monoclonal antibody 1HB1011 at a concentration of 10 ug/mL in 1× PBS pH 7.3 is coated on plates via overnight incubation. When ready for use, plates are washed three times with 300 uL of 1× Imidazole-Tween wash buffer and blocked with 1% BSA. […] The samples are allowed to incubate at room temperature for one hour. After incubation, the plates are plates are washed three times. A Goat Anti-human IgG1 1 (Sigma A3312) AP conjugate in 1×PBS with 1% BSA is added and allowed to incubate at room temperature for 1 hour. The plates are washed three times. Color was elucidated with paranitrophenylphosphate."}, "[3]": {"system": "HMGB1-induced TNF-α production in THP-1 cells", "test": "HMGB1-induced TNF-α production in THP-1 cells", "type": "cell-based", "parameters": "dose or concentration left out as unconfirmed", "conditions": "24 hours", "procedure": "(§1) HMGB1 has been reported to be a ligand for RAGE and the Toll-Like Receptors 2 and 4 (Park et al., J Biol Chem., 2004; 279(9):7370-7). All three of these receptors (RAGE, Toll-like receptor 2, and Toll-like receptor 4) are expressed on THP-1 cells (Parker, et al., J Immunol., 2004,172(8):4977-86.).\nIn this experiment, THP-1 cells were stimulated to produce TNF-α by HMGB1 ([…]) in the presence or absence of either TTP4000 or anti-RAGE antibodies. Under the conditions used in the assay, HMGB1 should be the only inducer of TNF-α.\nas §1, with “HMGB 1” for “HMGB1”, “J.” for “J”\nIn this experiment, THP-1 cells were stimulated to produce TNF-α by HMGB1 ([…]) in the presence or absence of either TTP4000 or anti-RAGE antibodies. Under the conditions used in the assay, HMGB1 should be the only inducer of TNF-α. The amount of TNF-αsecreted by the THP-1 cells was measured 24 hours after the addition of the proteins to the cell culture using a commercially available ELISA kit for TNF-α (R&D Systems, Minneapolis, Minn.)."}, "[4]": {"conditions": "300 ug LD + 100 ug qod ip, syngeneic islets in NOD mice"}},
  "note": "Several values for one entry are separate records, joined by “and”; a condition that tells them apart may be missing. Equal entries are not always repeated.",
  "data": [
    {"molecule": "B1", "values": [
      {"measurement": "day of graft loss for each animal", "setting": "[1]; [4]", "result": "40 day and 43 day and 36 day and 45 day and 44 day and 38 day (2×) and 35 day"},
      {"measurement": "day of graft loss, Mean", "setting": "[1]; [4]", "result": 39.875, "unit": "days"},
      {"measurement": "time before detection of graft failure, in words", "setting": "[1]; versus animals not treated at all", "result": "increase in the time before detection of graft failure"},
      {"measurement": "terminal half-life", "setting": "[2]", "result": "greater than 300 hours"},
      {"measurement": "inhibition of HMGB1-induced TNF-α production", "setting": "[3]", "result": "to a greater extent than does the anti-RAGE antibody"}
    ]}
  ]
}
